Laboratory results taken from patent US20100135948A1 (University of Pennsylvania, published 2010).
Where no end group is shown, it is not given here.

T1: desmoglein 3 (human, UniProt P32926 50-615, limits assumed)
T1 construct: Antigen on commercial ELISA plates; also called Dsg3; Dsg 3
T1 sequence (looked up): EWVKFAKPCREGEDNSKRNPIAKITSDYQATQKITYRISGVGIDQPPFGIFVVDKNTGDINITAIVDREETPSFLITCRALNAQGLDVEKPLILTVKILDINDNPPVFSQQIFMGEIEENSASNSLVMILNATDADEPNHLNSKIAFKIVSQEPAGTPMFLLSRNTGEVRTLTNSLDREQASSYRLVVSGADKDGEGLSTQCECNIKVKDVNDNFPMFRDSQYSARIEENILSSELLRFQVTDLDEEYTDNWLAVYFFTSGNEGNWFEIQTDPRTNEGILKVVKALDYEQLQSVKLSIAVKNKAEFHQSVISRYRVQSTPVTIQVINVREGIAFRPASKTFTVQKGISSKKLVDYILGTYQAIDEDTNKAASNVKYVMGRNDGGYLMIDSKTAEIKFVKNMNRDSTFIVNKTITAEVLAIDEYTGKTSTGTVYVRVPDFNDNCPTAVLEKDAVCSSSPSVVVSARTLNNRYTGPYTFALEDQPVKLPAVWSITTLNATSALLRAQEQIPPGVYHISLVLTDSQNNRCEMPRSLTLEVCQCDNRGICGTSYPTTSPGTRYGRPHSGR


Columns and labels:
desmoglein 3 = biological target: T1, desmoglein 3; experiment: ELISA
(D31)2/28 scFv = biological target: T2, (D31)2/28 scFv; experiment: ELISA inhibition, monoclonal peptide phage preincubated with PV scFv, Dsg plate (Dsg3 by paragraph 281)
T2 construct: Human anti-Dsg3/Dsg1 scFv from the PV(1) phage library (pComb3X, nickel-purified, HA-detected); also called pathogenic PV mAb
Method: (§1) For ELISA inhibition assays, anti-idiotypic reagents were pre-incubated with PV mAbs for one hour at 37° C. prior to incubation on Dsg3 or Dsg1 ELISA plates (Rhigene/MBL), which were otherwise processed according to manufacturer's instructions. Anti-idiotypic antisera were effective and dose responsive at dilutions ranging from 1:3 to 1:6400, while peptide phage were used in inhibition assays from 10⁸ to 10¹⁰ pfu/well. PV scFv binding, detected with HRP-conjugated anti-HA secondary antibody (Roche), was titrated to a final OD450 reading of 0.4-1.0, which was within the linear range of detection.
(§2) Select peptide phage were tested for their ability to inhibit binding of PV mAbs to Dsg substrates by ELISA (Table 4).

(D31)2/29 scFv = biological target: T3, (D31)2/29 scFv; experiment: as above
T3 construct: also called pathogenic PV mAb
Method: as §1, §2

(D31)12b/6 scFv = biological target: T4, (D31)12b/6 scFv; experiment: as above
T4 construct: also called nonpathogenic PV mAb
Method: as §1, §2

(D3)3c/9 scFv = biological target: T5, (D3)3c/9 scFv; experiment: as above
T5 construct: also called pathogenic PV mAb
Method: as §1, §2

(D3)1d/2c scFv = biological target: T6, (D3)1d/2c scFv; experiment: as above
T6 construct: also called nonpathogenic PV mAb
Method: as §1, §2

Row | Binder | binding result (desmoglein 3) | percent inhibition ((D31)2/28 scFv) [%] | percent inhibition ((D31)2/29 scFv) [%] | percent inhibition ((D31)12b/6 scFv) [%] | percent inhibition ((D3)3c/9 scFv) [%] | percent inhibition ((D3)1d/2c scFv) [%]
1 | ANKTSPFLMWRL (peptide, not shown: large carriers, also: displayed on phage, fused to pIII, Monoclonal phage clone from round 3 of screening with (D31)2/29 IgG; tested as phage particle) [P4 peptide phage] | no binding | 9 | 78 | 10 | 7 | 14
2 | YSNKTPHLQWRL (peptide, not shown: large carriers, also: displayed on phage, fused to pIII coat protein, linker not given here, Monoclonal phage clone; tested as phage particle) [P7 peptide phage] | no binding | 12 | 83 | 8 | 6 | 9
3 | AKNPPTLIWKHT (peptide, not shown: large carriers, also: displayed on phage, fused to pIII coat protein, linker not given here, Monoclonal phage clone; tested as phage particle) [P9 peptide phage] | no binding | – | – | – | – | –
4 | TTLTLRH (peptide, not shown: large carriers, also: displayed on phage, fused to pIII, Monoclonal phage clone; tested as phage particle) [P14 peptide phage] | no binding | 15 | 16 | 13 | 5 | 8
5 | WANKQPTIIWRS (peptide, not shown: large carriers, also: displayed on phage, fused to pIII coat protein, linker not given here, Monoclonal phage clone; tested as phage particle) [P5 peptide phage] | no binding | – | – | – | – | –
6 | QHNKSPNLYWRS (peptide, not shown: large carriers, also: displayed on phage, fused to pIII, Monoclonal phage clone; tested as phage particle) [P10 peptide phage] | no binding | – | – | – | – | –
7 | DLNYFTLSSKRE (peptide, not shown: large carriers, also: displayed on phage, fused to pIII coat protein, linker not given here, Control phage clone; tested as phage particle; also called control phage) [control peptide phage displaying a non-consensus sequence] | – | 2 | 15 | 11 | 8 | 8
8 | TDKTPFLLWRVH (peptide, not shown: large carriers, also: displayed on phage, fused to pIII coat protein, linker not given here, Monoclonal phage clone; tested as phage particle) [P8 peptide phage] | no binding | – | – | – | – | –
